The test has as its target 53BP1 fragment (a.a. 1221-1718) fused to an adenylate cyclase fragment (two-hybrid) (UniProt Q12888). Kind of test: cell-based or functional assay.
On to “i53 + A46G two-hybrid fusion (designed binder)”, for which the Experiment 1 Average Enrichment worked out at 0.6 log2, the Experiment 1 Rep 1 Enrichment was found to be 0.48 log2, the Experiment 1 Rep 2 Enrichment was determined as 0.72 log2 and the Experiment 2 Average Enrichment was -0.17 log2. Further, the Experiment 2 Rep 1 Enrichment turned out to be 1.37 log2 and the Experiment 2 Rep 2 Enrichment was -1.71 log2.

For the substance “i53 + K63F two-hybrid fusion (designed binder)”, the Experiment 1 Average Enrichment is -0.02 log2, the Experiment 1 Rep 1 Enrichment was -0.01 log2, the Experiment 1 Rep 2 Enrichment is -0.02 log2 and the Experiment 2 Average Enrichment is 0.08 log2. Also, the Experiment 2 Rep 1 Enrichment was -0.06 log2 and the Experiment 2 Rep 2 Enrichment came out at 0.22 log2.

For the substance “i53 + P38A two-hybrid fusion (designed binder)”, the Experiment 1 Average Enrichment amounted to 0.06 log2, the Experiment 1 Rep 1 Enrichment was -0.41 log2, the Experiment 1 Rep 2 Enrichment amounted to 0.53 log2 and the Experiment 2 Average Enrichment worked out at 0 log2. Also, the Experiment 2 Rep 1 Enrichment is -0.16 log2 and the Experiment 2 Rep 2 Enrichment is 0.15 log2.

On to “i53 + P38V two-hybrid fusion (designed binder)”, for which the Experiment 1 Average Enrichment turned out to be 1.21 log2, the Experiment 1 Rep 1 Enrichment was found to be 1.16 log2, the Experiment 1 Rep 2 Enrichment turned out to be 1.26 log2 and the Experiment 2 Average Enrichment was found to be 0.05 log2. Further, the Experiment 2 Rep 1 Enrichment turned out to be 0.38 log2 and the Experiment 2 Rep 2 Enrichment was -0.29 log2.

As to “i53 + A28D two-hybrid fusion (designed binder)”, the Experiment 1 Average Enrichment was 0.02 log2, the Experiment 1 Rep 1 Enrichment was -0.25 log2, the Experiment 1 Rep 2 Enrichment came out at 0.29 log2 and the Experiment 2 Average Enrichment is -0.41 log2. Besides, the Experiment 2 Rep 1 Enrichment is -0.24 log2 and the Experiment 2 Rep 2 Enrichment was -0.58 log2.

“i53 + K33T two-hybrid fusion (designed binder)” came in with an Experiment 1 Average Enrichment of 1.77 log2, an Experiment 1 Rep 1 Enrichment of 1.9 log2, an Experiment 1 Rep 2 Enrichment of 1.63 log2 and an Experiment 2 Average Enrichment of 1.41 log2. Further, the Experiment 2 Rep 1 Enrichment is 1.48 log2 and the Experiment 2 Rep 2 Enrichment was determined as 1.34 log2.

“i53 + E18Q two-hybrid fusion (designed binder)” had an Experiment 1 Average Enrichment of 0.72 log2, an Experiment 1 Rep 1 Enrichment of 0.61 log2, an Experiment 1 Rep 2 Enrichment of 0.83 log2 and an Experiment 2 Average Enrichment of 0.03 log2. This substance also had an Experiment 2 Rep 1 Enrichment of 0.02 log2 and an Experiment 2 Rep 2 Enrichment of 0.05 log2.

“i53 + K33Q two-hybrid fusion (designed binder)” displayed an Experiment 1 Average Enrichment of 2.9 log2, an Experiment 1 Rep 1 Enrichment of 3.03 log2, an Experiment 1 Rep 2 Enrichment of 2.77 log2 and an Experiment 2 Average Enrichment of 1.48 log2. This substance came in with an Experiment 2 Rep 1 Enrichment of 1.96 log2 and an Experiment 2 Rep 2 Enrichment of 0.99 log2.

As for “i53 + K33E two-hybrid fusion (designed binder)”, the Experiment 1 Average Enrichment was found to be 2.71 log2, the Experiment 1 Rep 1 Enrichment amounted to 2.38 log2, the Experiment 1 Rep 2 Enrichment stood at 3.03 log2 and the Experiment 2 Average Enrichment came to 1.27 log2. Besides, the Experiment 2 Rep 1 Enrichment was 1.48 log2 and the Experiment 2 Rep 2 Enrichment worked out at 1.05 log2.

Regarding “i53 + S57M two-hybrid fusion (designed binder)”, the Experiment 1 Average Enrichment is 0.01 log2, the Experiment 1 Rep 1 Enrichment is -0.11 log2, the Experiment 1 Rep 2 Enrichment came to 0.12 log2 and the Experiment 2 Average Enrichment is -0.04 log2. For the same substance, the Experiment 2 Rep 1 Enrichment was -0.17 log2 and the Experiment 2 Rep 2 Enrichment came out at 0.09 log2.

On to “i53 + R42H two-hybrid fusion (designed binder)”, for which the Experiment 1 Average Enrichment was 2.04 log2, the Experiment 1 Rep 1 Enrichment was 2.18 log2, the Experiment 1 Rep 2 Enrichment came out at 1.89 log2 and the Experiment 2 Average Enrichment worked out at 1.03 log2. The substance also came in with an Experiment 2 Rep 1 Enrichment of 0.89 log2 and an Experiment 2 Rep 2 Enrichment of 1.16 log2.

In turn, “i53 + N25K two-hybrid fusion (designed binder)” returned an Experiment 1 Average Enrichment of 0.32 log2, an Experiment 1 Rep 1 Enrichment of 0.11 log2, an Experiment 1 Rep 2 Enrichment of 0.54 log2 and an Experiment 2 Average Enrichment of 0.21 log2. The Experiment 2 Rep 1 Enrichment is 0.17 log2 and the Experiment 2 Rep 2 Enrichment came out at 0.24 log2.

“i53 + K48V two-hybrid fusion (designed binder)” registered an Experiment 1 Average Enrichment of 0.54 log2, an Experiment 1 Rep 1 Enrichment of 0.59 log2, an Experiment 1 Rep 2 Enrichment of 0.48 log2 and an Experiment 2 Average Enrichment of 0.34 log2. The same substance gave an Experiment 2 Rep 1 Enrichment of 0.23 log2 and an Experiment 2 Rep 2 Enrichment of 0.46 log2.

For the substance “i53 + K29R two-hybrid fusion (designed binder)”, the Experiment 1 Average Enrichment is -0.01 log2, the Experiment 1 Rep 1 Enrichment was -0.07 log2, the Experiment 1 Rep 2 Enrichment worked out at 0.05 log2 and the Experiment 2 Average Enrichment is 0.28 log2. This substance gave an Experiment 2 Rep 1 Enrichment of 0.45 log2 and an Experiment 2 Rep 2 Enrichment of 0.1 log2.

For “i53 + R74E two-hybrid fusion (designed binder)”, the Experiment 1 Average Enrichment turned out to be 0.38 log2, the Experiment 1 Rep 1 Enrichment was 0.53 log2, the Experiment 1 Rep 2 Enrichment worked out at 0.23 log2 and the Experiment 2 Average Enrichment is -0.1 log2. The Experiment 2 Rep 1 Enrichment came out at 0.14 log2 and the Experiment 2 Rep 2 Enrichment was -0.35 log2.

“i53 + E16Y two-hybrid fusion (designed binder)”: the Experiment 1 Average Enrichment stood at 0.35 log2, the Experiment 1 Rep 1 Enrichment was 0.23 log2, the Experiment 1 Rep 2 Enrichment came to 0.47 log2 and the Experiment 2 Average Enrichment is -0.22 log2. In addition, the Experiment 2 Rep 1 Enrichment is -0.32 log2 and the Experiment 2 Rep 2 Enrichment is -0.11 log2.

With “i53 + K63M two-hybrid fusion (designed binder)”, the Experiment 1 Average Enrichment was -0.07 log2, the Experiment 1 Rep 1 Enrichment is -0.24 log2, the Experiment 1 Rep 2 Enrichment is 0.09 log2 and the Experiment 2 Average Enrichment was 0.2 log2. This substance also came in with an Experiment 2 Rep 1 Enrichment of 0.18 log2 and an Experiment 2 Rep 2 Enrichment of 0.22 log2.

As for “i53 + Q31L two-hybrid fusion (designed binder)”, the Experiment 1 Average Enrichment turned out to be 0.41 log2, the Experiment 1 Rep 1 Enrichment amounted to 0.71 log2, the Experiment 1 Rep 2 Enrichment worked out at 0.11 log2 and the Experiment 2 Average Enrichment is -0.15 log2. The Experiment 2 Rep 1 Enrichment was -0.23 log2 and the Experiment 2 Rep 2 Enrichment was -0.06 log2.

For the substance “i53 + K33C two-hybrid fusion (designed binder)”, the Experiment 1 Average Enrichment stood at 1.96 log2, the Experiment 1 Rep 1 Enrichment turned out to be 2.85 log2, the Experiment 1 Rep 2 Enrichment came out at 1.07 log2 and the Experiment 2 Average Enrichment stood at 0.77 log2. For the same substance, the Experiment 2 Rep 1 Enrichment turned out to be 0.55 log2 and the Experiment 2 Rep 2 Enrichment is 0.99 log2.

In the case of “i53 + S20W two-hybrid fusion (designed binder)”, the Experiment 1 Average Enrichment was -0.36 log2, the Experiment 1 Rep 1 Enrichment is -0.97 log2, the Experiment 1 Rep 2 Enrichment was determined as 0.25 log2 and the Experiment 2 Average Enrichment was determined as 0.17 log2. In addition, the Experiment 2 Rep 1 Enrichment is 0.1 log2 and the Experiment 2 Rep 2 Enrichment turned out to be 0.24 log2.

On to “i53 + S65N two-hybrid fusion (designed binder)”, for which the Experiment 1 Average Enrichment is 0.38 log2, the Experiment 1 Rep 1 Enrichment worked out at 0.04 log2, the Experiment 1 Rep 2 Enrichment came out at 0.71 log2 and the Experiment 2 Average Enrichment is 0.34 log2. Besides, the Experiment 2 Rep 1 Enrichment is 0.71 log2 and the Experiment 2 Rep 2 Enrichment is -0.04 log2.

In the case of “i53 + T7L two-hybrid fusion (designed binder)”, the Experiment 1 Average Enrichment is 0.61 log2, the Experiment 1 Rep 1 Enrichment was 0.62 log2, the Experiment 1 Rep 2 Enrichment was 0.61 log2 and the Experiment 2 Average Enrichment was -0.19 log2. For the same substance, the Experiment 2 Rep 1 Enrichment was -0.07 log2 and the Experiment 2 Rep 2 Enrichment is -0.31 log2.

With “i53 + S57A two-hybrid fusion (designed binder)”, the Experiment 1 Average Enrichment turned out to be 0.37 log2, the Experiment 1 Rep 1 Enrichment is 0.29 log2, the Experiment 1 Rep 2 Enrichment is 0.46 log2 and the Experiment 2 Average Enrichment turned out to be 0.03 log2. The Experiment 2 Rep 1 Enrichment was -0.03 log2 and the Experiment 2 Rep 2 Enrichment amounted to 0.08 log2.

The substance “i53 + R42C two-hybrid fusion (designed binder)” had an Experiment 1 Average Enrichment of 0.42 log2, an Experiment 1 Rep 1 Enrichment of 0.37 log2, an Experiment 1 Rep 2 Enrichment of 0.47 log2 and an Experiment 2 Average Enrichment of 0.28 log2. This substance showed an Experiment 2 Rep 1 Enrichment of 0.54 log2 and an Experiment 2 Rep 2 Enrichment of 0.01 log2.

Regarding “i53 + L67K two-hybrid fusion (designed binder)”, the Experiment 1 Average Enrichment worked out at 2.01 log2, the Experiment 1 Rep 1 Enrichment came to 2.08 log2, the Experiment 1 Rep 2 Enrichment is 1.93 log2 and the Experiment 2 Average Enrichment is 0.89 log2. For the same substance, the Experiment 2 Rep 1 Enrichment stood at 1.4 log2, the Experiment 2 Rep 2 Enrichment stood at 0.39 log2, the Percent GFP Positive Rep 1 stood at 24.2% and the Percent GFP Positive Rep 2 amounted to 11.2%. For the same substance, the Percent GFP Positive Rep 3 worked out at 21.5%.

The substance “i53 + R54T two-hybrid fusion (designed binder)” came in with an Experiment 1 Average Enrichment of 0.66 log2, an Experiment 1 Rep 1 Enrichment of 0.62 log2, an Experiment 1 Rep 2 Enrichment of 0.71 log2 and an Experiment 2 Average Enrichment of 0.7 log2. This substance also showed an Experiment 2 Rep 1 Enrichment of 0.76 log2 and an Experiment 2 Rep 2 Enrichment of 0.64 log2.

As to “i53 + K48R two-hybrid fusion (designed binder)”, the Experiment 1 Average Enrichment came to 0.35 log2, the Experiment 1 Rep 1 Enrichment was 0.39 log2, the Experiment 1 Rep 2 Enrichment came out at 0.32 log2 and the Experiment 2 Average Enrichment amounted to 0.14 log2. Further, the Experiment 2 Rep 1 Enrichment amounted to 0.09 log2 and the Experiment 2 Rep 2 Enrichment was 0.19 log2.

As to “i53 + Q40E two-hybrid fusion (designed binder)”, the Experiment 1 Average Enrichment turned out to be 1.37 log2, the Experiment 1 Rep 1 Enrichment is 1.67 log2, the Experiment 1 Rep 2 Enrichment came to 1.08 log2 and the Experiment 2 Average Enrichment amounted to 1.18 log2. The substance further displayed an Experiment 2 Rep 1 Enrichment of 1.84 log2 and an Experiment 2 Rep 2 Enrichment of 0.52 log2.
